Measurements as given in US6429014B1, “Monoterpene synthases from grand fir (Abies grandis)” (Washington State University Research Foundation, priority 1997, dated 2002).

Assay: Terpene synthase assay and GC-MS / chiral GC product identification of recombinant enzymes expressed from pSBET in E. coli BL21(DE3) (Example 11)
Assay type: biochemical
Protocol: For functional expression, bacterial strains E. coli BL21(DE3)/pSAG2(M), E. coli BL21(DE3)/pSAG2(R), E. coli BL21(DE3)/pSAG3(R), E. coli BL21(DE3)/pSAG6(M), E. coli BL21(DE3/pSAG6(R), E. coli BL21(DE3)/pSAG8(M), E. coli BL21(DE3)/pSAG9(M), E. coli BL21(DE3)/pSAG11(M) and E. coli BL21(DE3)/SAG11(R) were grown to A600=0.5 at 37° C. in 5 ml of Luria-Bertani medium (Sambrook, J., Fritsch, E. F., and Maniatis, T. (1989) Molecular Cloning: A Laboratory Manual, 2nd Ed., pp. 7.20-7.43, Cold Spring Harbor, N.Y.) supplemented with 30 μg kanamycin/ml. Cultures were then induced by addition of 1 mM isopropyl-1-thio-β-D-galactopyranoside and grown for another 12 h at 20° C. Cells were harvested by centrifugation and disrupted by sonication followed by centrifugation, and the resulting soluble enzyme preparations were assayed for monoterpene, sesquiterpene and diterpene synthase activity using the appropriate radiolabeled substrate as described previously (Bohlmann, J., Steele, C. L., and Croteau, R. (1997) J. Biol. Chem. 272, 21784-21792). This assay involves the isolation and separation of terpene olefins and oxygenated terpenes by column chromatography on silica, followed by scintillation counting to determine conversion rate. GC-MS analysis is employed for product identification, by comparison of retention times and mass spectra to those of authentic standards (Bohlmann, J., Steele, C. L., and Croteau, R. (1997) J. Biol Chem. 272, 21784-21792); assignment of absolute configuration is based upon chiral column capillary GC and matching of retention time to that of the corresponding enantiomer (Lewinsohn, E., Savage, T. J., Gijzen, M., and Croteau, R. (1993) Phytochem. Anal. 4, 220-225). To insure production of sufficient material for identification, the standard assay (Bohlmann, J., Steele, C. L., and Croteau, R. (1997) J. Biol. Chem. 272, 21784-21792) was scaled up by a factor of 20.
Initially, the four pSBET plasmids pSAG6(M), pSAG8(M), pSAG9(M) and pSAG11(M), containing the full-length cDNA inserts of ag6 (SEQ ID NO:64), ag8 (SEQ ID NO:66), ag9 (SEQ ID NO:77) and ag11 (SEQ ID NO:68), respectively, were expressed in E. coli BL21(DE3). Extracts of the induced, transformed bacterial cells were assayed for monoterpene, sesquiterpene and diterpene synthase activity using the corresponding labeled C10, C15 and C20 prenyl diphosphate substrates (Bohlmann, J., Steele, C. L., and Croteau, R. (1997) J. Biol. Chem. 272, 21784-21792). […] Since it is known that the relatively large amino-terminal transit peptide of plant terpene synthases can impair expression of the functional preprotein in E. coli and promote the formation of intractable inclusion bodies (Williams, D. C., McGarvey, D. J., Katahira, E. J., and Croteau, R. (1998) Biochemisiry 37, 12213-12220), the“pseudomature” forms of ag6 (SEQ ID NO:64) and ag11 (SEQ ID NO:68) were prepared by truncation of the cDNAs to insert a starting methionine immediately upstream of their tandem arginine elements (R59R 60 for ag6 (SEQ ID NO:64), R^71R^72 for ag11 (SEQ ID NO:68)) for expression in E. coli BL21(DE3)/pSAG6(R) and E. coli BL21(DE3)/pSAG11(R). Similar truncations of previously characterized ag2.2 (SEQ ID NO:1) (myrcene synthase, R^64R^65) and ag3.18 (SEQ ID NO:3) ((−)-pinene synthase, (SEQ ID NO:5) R^64R^65) (Bohlmann, J., Steele, C. L., and Croteau, R. (1997) J. Biol. Chem. 272, 21784-21792) were prepared for expression from pSBET as controls for the possible alteration of product yield and distribution resulting from truncation.
Monoterpenes generated at preparative scale from geranyl diphosphate by the recombinant enzymes encoded by ag6 (SEQ ID NO:64), ag8 (SEQ ID NO:66), ag9 (SEQ ID NO:77) and ag11 (SEQ ID NO:68) were analyzed by GC-MS and chiral phase (β-cyclodextrin) capillary GC, and identified by comparison of retention times and mass spectra to authentic standards (FIGS. 6-9). […] The enzyme encoded by ag6 (SEQ ID NO:65) is therefore designated as (−)-1S,4R-camphene synthase. […]

[1] = from geranyl diphosphate, preparative scale

| Molecule | (−)-1S,4R-camphene share of monoterpene products [1] | (−)-1S,5S-α-pinene share of monoterpene products [1] | (−)-4S-limonene share of monoterpene products [1] | prenyl diphosphate substrate yielding terpene olefin products (C10, C15, C20 tested) (truncated forms pSAG6(R), pSAG11(R) in E. coli BL21(DE3)) | terpene synthase activity on expression from pSBET in E. coli BL21(DE3) (extracts of induced cells) | (−)-1S,5S-β-pinene share of monoterpene products [1] | terpinolene share of monoterpene products [1] |
| --- | --- | --- | --- | --- | --- | --- | --- |
| ag6: recombinant (−)-camphene synthase from Grand fir encoded by clone ag6 (SEQ ID NO:64; protein SEQ ID NO:65) (protein, listed as Abies grandis) MALLSITPLVSRSCLSSSHEIKALRRTIPTLGICRPGKSVAHSINMCLTSVASTDSVQRRVGNYHSNLWDDDFIQSLISTPYGAPDYRERADRLIGEVKDIMFNFKSLEDGGNDLLQRLLLVDDVERLGIDRHFKKEIKTALDYVNSYWNEKGIGCGRESVVTDLNSTALGLRTLRLHGYTVSSDVLNVFKDKNGQFSSTANIQIEGEIRGVLNLFRASLVAFPGEKVMDEAETFSTKYLREALQKIPASSILSLEIRDVLEYGWHTNLPRLEARNYMDVFGQHTKNKNAAEKLLELAKLEFNIFHSLQERELKHVSRWWKDSGSPEMTFCRHRHVEYYALASCIAFEPQHSGFRLGFTKMSHLITVLDDMYDVFGTVDELELFTATIKRWDPSAMECLPEYMKGVYMMVYHTVNEMARVAEKAQGRDTLNYARQAWEACFDSYMQEAKWIATGYLPTFEEYLENGKVSSAHRPCALQPILTLDIPFPDHILKEVDFPSKLNDLICIILRLRGDTRCYKADRARGEEASSISCYMKDNPGLTEEDALNHINFMIRDAIRELNWELLKPDNSVPITSKKHAFDISRVWHHGYRYRDGYSFANVETKSLVMRTVIEPVPL | 54% | 32% | 7% | only geranyl diphosphate yielded high levels of terpene olefin products |  |  |  |
| ag9: recombinant terpinolene synthase from Grand fir encoded by clone ag9 (SEQ ID NO:77; protein SEQ ID NO:78) (protein, listed as Abies grandis) MALVSILPLSSKSVLHKSWIVSTYEHKAISRTIPNLGLRGRGKSVTHSLRMSLSTAVSDDHGVQRRIVEFHSNLWDDDFIQSLSTPYGAPSYRERADRLIVEVKGIFTSISAEDGELITPLNDLIQRLLMVDNVERLGIDRHFKNEIKAALDYVYSYWNEKGIGSGSDSGVADLNSTALGFRILRLHGYSVSSDVLEHFKEEKEKGQFVCSAIQTEEEIKSVLNLFRASLIAFPGEKVMEEAEIFSKIYLKEALQNIAVSSLSREIEYVLEDGWQTNMPRLETRNYIDVLGENDRDETLYMNMEKLLEIAKLEFNIFHSLQQRELKDLSRWWKDSGFSHLTFSRHRHVEFYALASCIETDRKHSGFRLGFAKMCHLITVLDDIYDTFGTMEELELFTAAFKRWDPSATDLLPEYMKGLYMVVYETVNEIAREADKSQGRETLNDARRAWEAYLDSYMKEAEWISSGYLPTFEEYMETSKVSFGYRIFALQPILTMDVPLTHHILQEIDFPLRFNDLICSILRLKNDTRCYKADRARGEEASCISCYMKENPGSTEEDAINHINAMVNNLIKEVNWELLRQDGTAHIACKKHAFDILKGSLHGYKYRDGFSVANKETKNWVRRTVLESVPL |  | 18% | 11% |  | Enzymatic production of terpene olefin(s) was observed | 10% | 42% |
